Literature values in paper PMC8508339.

Columns and labels:
[1] = biological target: cholecystokinin (Homo sapiens) (UniProt P06307)
gastrin (Homo sapiens) = gastrin (Homo sapiens) (UniProt P01350)
UniProt P01350, sequence (P01350 whole entry, looked up): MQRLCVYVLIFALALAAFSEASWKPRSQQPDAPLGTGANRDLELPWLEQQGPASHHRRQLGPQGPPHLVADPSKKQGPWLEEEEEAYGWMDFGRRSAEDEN

UniProt P06307, sequence (P06307 whole entry, looked up): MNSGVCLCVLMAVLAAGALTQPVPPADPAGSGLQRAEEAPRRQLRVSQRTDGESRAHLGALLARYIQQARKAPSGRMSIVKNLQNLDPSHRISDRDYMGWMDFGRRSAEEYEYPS

Kd [1]: 1 nM | Kd (gastrin (Homo sapiens)): 1 nM
Substance: CCK-B receptor (CCK2) (from UniProt P32239)
